Laboratory results taken from patent US20060234282A1 (NATIONAL RESEARCH COUNCIL OF CANADA, published 2006).

T1: rat galanin receptor-2 (GAL-R2) (rat, UniProt O08726 1-372)
T1 construct: Full 372 amino acid open reading frame expressed from pCDNA3/GALR-2 in HEK293 cells; cAMP assays used whole cells; also called rat GAL-R2; RGALR2.PRO
T1 sequence: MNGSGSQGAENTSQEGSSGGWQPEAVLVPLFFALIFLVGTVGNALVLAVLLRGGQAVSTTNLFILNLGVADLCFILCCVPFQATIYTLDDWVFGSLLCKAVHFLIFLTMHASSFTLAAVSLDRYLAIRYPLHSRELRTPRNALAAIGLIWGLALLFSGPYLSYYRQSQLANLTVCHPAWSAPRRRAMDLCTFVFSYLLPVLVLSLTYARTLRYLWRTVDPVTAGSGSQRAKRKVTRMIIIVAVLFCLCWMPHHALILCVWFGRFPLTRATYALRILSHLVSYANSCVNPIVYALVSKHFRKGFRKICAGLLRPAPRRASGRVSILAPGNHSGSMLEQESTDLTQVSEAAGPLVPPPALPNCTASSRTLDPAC


Target: T1, rat galanin receptor-2 (GAL-R2)
Assay: displacement of ^125I-galanin, membranes of HEK293 cells expressing rat GAL-R2
Description: Binding reactions proceeded for 20 min at room temperature and were stopped by filtration through Unifilters-96, GF/B filters (Canberra Packard), using the 96-well Filtermate 196 filtration system from Canberra Packard. Filters were washed 5 times with 0.5 ml of ice cold 20 mM HEPES pH 7.5. The filters were dried at 55° C. for one hour and then 100 μl of μScint-20 (Canberra Packard) was added per well. Filters were counted with the Topcount microplate counter from Canberra Packard.

Molecule	Ki [nM]	binding result
M40 (peptide)	8.3	
RPKPQQFFGLM (peptide, UniProt P20366 58-68, looked up, Galanin-unrelated control ligand) [substance P]		no binding
HSDAVFTDNYTRLRKQMAVKKYLNSILN (peptide, UniProt P01282 125-152, looked up, Galanin-unrelated control ligand) [vasoactive intestinal polypeptide]		no binding
